Test results as given in US20240002497A1 (Merck Sharp & Dohme, published 2024).
Positions count from the first letter of the chain named. Numbers in names are those of the source. Like-named read-outs stand apart in the source and are kept apart here.

What was measured:
[1] = molecular target: T1, huNav1.7α + β1-β2-β3 (human, UniProt Q15858 1-1988; A5A6L6 19-218; O60939 30-215; Q2KI11 23-215); assay: competition FACS vs EC25 of F103275B05(N93R), CHO FlpIn
T1 construct: also called huNav1.7-beta1-beta2-beta3; huNav1.7-β1-β2-β3

[2] = molecular target: rhNav1.7α + β1-β2-β3 (rhesus monkey); assay: cell-based or functional assay
[3] = molecular target: T1, huNav1.7α + β1-β2-β3; assay: cell-based or functional assay
[4] = molecular target: T2, huNav1.7α (human, UniProt Q15858 1-1988); assay: cell-based or functional assay
[5] = molecular target: Rhesus Nav1.7α (rhesus, UniProt Q15858 1-1988 (human entry)); assay: cell-based or functional assay
[6] = molecular target: T1, huNav1.7α + β1-β2-β3; assay: competition FACS vs EC25 of F103275B05(N93R), HEK FlpIn
[7] = molecular target: T3, rhNav1.7α + β1-β2-β3 (rhesus monkey); assay: competition FACS vs EC40 of F103275B05(N93R), CHO FlpIn
T3 construct: also called rhNav1.7-beta1-beta2-beta3; rhNav1.7-β1-β2-β3

[8] = molecular target: T4, huNav1.7α + β1 (human); assay: competition FACS vs EC25 of F103275B05(N93R), HEK
T4 construct: HEK293 cells; also called huNav1.7-beta1; huNav1.7-β1

[9] = molecular target: T2, huNav1.7α; assay: competition FACS vs EC25 of F103275B05(N93R), HEK
[10] = molecular target: T5, huNav1.7α+β1-β2-β3 (human, UniProt Q15858 1-1988; Q07699 19-218; O60939 30-215; Q9NY72 23-215); assay: binding FACS, CHO FlpIn cells
T5 construct: 5N11S variant; also called huNav1.7-beta1-beta2-beta3; huNav1.7α+Navβ1-Navβ2-Navβ3
In short: (§1)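 Flow cytometry read-out of anti-Flag signal on propidium iodide-negative cells measured ISVD binding. Purified FLAG3-tagged ISVD, diluted in PBS with 10% FBS and NaN₃, was applied to the cells for 30 minutes at 4° C.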

[11] = molecular target: T6, huNav1.7α+β1 (human, UniProt Q15858 1-1988; Q07699 19-218); assay: binding FACS, HEKa/β1 cells
T6 construct: also called huNav1.7-beta1; HEKa/β1
In short: as §1

[12] = molecular target: T7, huNav1.7α (human, UniProt Q15858 1-1988); assay: binding FACS, HEKa cells
T7 construct: HEK cells expressing the α subunit alone; also called HEKa; HEK huNav1.7α
In short: as §1

[13] = molecular target: T8, rhNav1.7α+β1-β2-β3 (rhesus monkey α subunit with human β …); assay: binding FACS, CHO FlpIn cells
T8 construct: P2A cleaves it into α, β1, β2, β3; also called rhNav1.7-beta1-beta2-beta3
Description: (§2) Binding of the ISVDs to cell-expressed Nav1.7α was detected via murine anti-Flag (Sigma, catalog #F1804). Briefly, cells were resuspended in FACS buffer (PBS, 10% FBS, NaN₃) and transferred to a 96-well V-bottom plate at 1×10^5 cells/well. Purified FLAG3-tagged ISVD was diluted in FACS buffer and added to the cells for 30 minutes at 4° C. […] Prior to the read-out, the samples were resuspended in 1 μg/mL propidium iodide (Sigma, catalog #P4170) to exclude dead cells. Between each step, the cells were centrifuged for 5 minutes at 200 grams and washed with 100 μL/well FACS buffer.
(§3) Crude periplasmic extracts containing ISVDs from phage display selections (as described above) were screened in FACS for binding to huNav1.7α but not to huNav1.5a. […] As used in Table 8, the drawings, and throughout the description, Navβ1, Navβ2, and Navβ3 are human homologs unless specifically identified otherwise.

[14] = molecular target: huNav1.1α (human, UniProt P35498 1-2009); assay: binding FACS on stable huNav1.x paralog HEK293T cell lines
[15] = molecular target: T9, huNav1.3α (human, UniProt Q9NY46 1-2000); assay: as above
T9 construct: also called huNav1.3 (alpha subunit)

[16] = molecular target: T10, huNav1.6α (human, UniProt Q9UQD0 1-1980); assay: as above
T10 construct: also called huNav1.6 (alpha subunit)

[17] = molecular target: T11, huNav1.5α (human, UniProt Q14524 1-2016); assay: as above
T11 construct: also called huNav1.5 (alpha subunit)

[18] = molecular target: T12, huNav1.4α (human, UniProt P35499 1-1836); assay: as above
T12 construct: also called huNav1.4 (alpha subunit)

[19] = molecular target: T13, huNav1.8α (human, UniProt Q9Y5Y9 1-1956); assay: as above
T13 construct: also called huNav1.8 (alpha subunit)

[20] = molecular target: T14, huNav1.2α (human, UniProt Q99250 1-2005); assay: as above
T14 construct: also called huNav1.2 (alpha subunit)

[21] = molecular target: T6, huNav1.7α+β1; assay: binding FACS, HEK293 cells
Description: as §2, §3

[22] = molecular target: T15, huNav1.5α+β1-β2-β3 (human, UniProt Q14524 1-2016; A5A6L6 19-218; O60939 30-215; Q2KI11 23-215); assay: binding FACS, HEK FlpIn cells
T15 construct: in the cell P2A cleaves it into α, β1, β2, β3; also called huNav1.5-beta1-beta2-beta3
Description: as §2, §3

[23] = molecular target: T5, huNav1.7α+β1-β2-β3; assay: binding FACS, HEK FlpIn cells
Description: as §2, §3

[24] = molecular target: T16, huNav157chimera14+β1-β2-β3 (human, UniProt Q07699 19-218; O60939 30-215; Q9NY72 23-215); assay: binding FACS, HEK FlpIn cells
T16 construct: HEK FlpIn line; also called huNav157 chimera 14-beta1-beta2-beta3; Nav157ch14-β1-β2-β3
Description: as §2, §3

[25] = molecular target: T7, huNav1.7α; assay: binding FACS, HEKa cells; remark: listed apart in the source
[26] = molecular target: T6, huNav1.7α+β1; assay: binding FACS, HEKa/β1 cells; remark: listed apart in the source
[27] = molecular target: T5, huNav1.7α+β1-β2-β3; assay: binding FACS, CHO FlpIn cells; remark: listed apart in the source
Description: as §2, §3

[28] = molecular target: T3, rhNav1.7α + β1-β2-β3; assay: cell-based or functional assay; remark: listed apart in the source
[29] = molecular target: T4, huNav1.7α + β1; assay: cell-based or functional assay
[30] = molecular target: T3, rhNav1.7α + β1-β2-β3; assay: cell-based or functional assay; remark: listed apart in the source
[31] = molecular target: T4, huNav1.7α + β1; assay: cell-based or functional assay; remark: listed apart in the source
[32] = molecular target: T4, huNav1.7α + β1; assay: binding FACS, HEK
[33] = molecular target: T2, huNav1.7α; assay: binding FACS, HEK
[34] = molecular target: T4, huNav1.7α + β1; assay: cell-based or functional assay; remark: listed apart in the source

T12 sequence (P35499 whole entry): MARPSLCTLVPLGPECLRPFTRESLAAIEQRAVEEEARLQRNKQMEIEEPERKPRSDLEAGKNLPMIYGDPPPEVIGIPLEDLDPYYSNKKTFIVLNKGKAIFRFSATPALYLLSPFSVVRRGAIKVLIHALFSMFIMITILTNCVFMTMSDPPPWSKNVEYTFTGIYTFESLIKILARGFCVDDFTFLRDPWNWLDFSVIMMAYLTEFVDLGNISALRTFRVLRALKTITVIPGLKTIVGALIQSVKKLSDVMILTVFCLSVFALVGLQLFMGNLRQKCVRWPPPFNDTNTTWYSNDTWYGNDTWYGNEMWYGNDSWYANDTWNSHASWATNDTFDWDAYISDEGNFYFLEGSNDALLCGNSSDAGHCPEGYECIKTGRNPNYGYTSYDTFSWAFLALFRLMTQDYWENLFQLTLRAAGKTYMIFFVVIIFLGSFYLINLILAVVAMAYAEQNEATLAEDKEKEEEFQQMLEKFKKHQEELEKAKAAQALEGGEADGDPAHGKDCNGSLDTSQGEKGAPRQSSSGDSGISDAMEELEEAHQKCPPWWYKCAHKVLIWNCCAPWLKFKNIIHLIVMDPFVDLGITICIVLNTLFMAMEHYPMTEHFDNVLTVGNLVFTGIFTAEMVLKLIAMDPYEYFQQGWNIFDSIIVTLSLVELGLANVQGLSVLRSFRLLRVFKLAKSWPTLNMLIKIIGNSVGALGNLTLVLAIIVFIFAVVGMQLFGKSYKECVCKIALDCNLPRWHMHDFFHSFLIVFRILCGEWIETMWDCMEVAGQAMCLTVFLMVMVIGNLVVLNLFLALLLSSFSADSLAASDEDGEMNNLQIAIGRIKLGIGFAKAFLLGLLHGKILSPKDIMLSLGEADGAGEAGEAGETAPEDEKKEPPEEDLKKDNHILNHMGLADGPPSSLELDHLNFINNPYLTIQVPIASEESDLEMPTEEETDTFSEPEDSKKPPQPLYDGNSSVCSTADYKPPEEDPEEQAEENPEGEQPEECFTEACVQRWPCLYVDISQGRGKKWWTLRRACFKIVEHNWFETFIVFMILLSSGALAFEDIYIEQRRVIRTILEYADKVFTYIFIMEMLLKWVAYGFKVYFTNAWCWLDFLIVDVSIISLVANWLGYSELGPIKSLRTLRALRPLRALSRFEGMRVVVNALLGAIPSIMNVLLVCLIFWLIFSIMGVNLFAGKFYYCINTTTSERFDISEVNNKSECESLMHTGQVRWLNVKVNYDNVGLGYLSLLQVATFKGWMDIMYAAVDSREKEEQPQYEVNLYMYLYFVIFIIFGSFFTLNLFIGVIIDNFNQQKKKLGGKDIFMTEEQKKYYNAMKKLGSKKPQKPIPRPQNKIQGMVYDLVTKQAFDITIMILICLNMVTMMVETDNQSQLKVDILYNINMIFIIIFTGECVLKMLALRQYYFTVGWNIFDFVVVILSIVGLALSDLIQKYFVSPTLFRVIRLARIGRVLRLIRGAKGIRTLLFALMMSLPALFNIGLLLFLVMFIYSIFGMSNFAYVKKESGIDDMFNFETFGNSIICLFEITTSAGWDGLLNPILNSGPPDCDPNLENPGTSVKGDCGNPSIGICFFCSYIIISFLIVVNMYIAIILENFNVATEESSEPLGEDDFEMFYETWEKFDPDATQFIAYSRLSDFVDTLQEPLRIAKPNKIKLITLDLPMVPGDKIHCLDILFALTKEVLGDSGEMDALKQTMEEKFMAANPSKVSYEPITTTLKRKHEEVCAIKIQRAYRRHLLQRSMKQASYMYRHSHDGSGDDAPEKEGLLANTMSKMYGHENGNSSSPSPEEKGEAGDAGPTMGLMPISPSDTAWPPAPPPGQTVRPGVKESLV
T13 sequence (Q9Y5Y9 whole entry): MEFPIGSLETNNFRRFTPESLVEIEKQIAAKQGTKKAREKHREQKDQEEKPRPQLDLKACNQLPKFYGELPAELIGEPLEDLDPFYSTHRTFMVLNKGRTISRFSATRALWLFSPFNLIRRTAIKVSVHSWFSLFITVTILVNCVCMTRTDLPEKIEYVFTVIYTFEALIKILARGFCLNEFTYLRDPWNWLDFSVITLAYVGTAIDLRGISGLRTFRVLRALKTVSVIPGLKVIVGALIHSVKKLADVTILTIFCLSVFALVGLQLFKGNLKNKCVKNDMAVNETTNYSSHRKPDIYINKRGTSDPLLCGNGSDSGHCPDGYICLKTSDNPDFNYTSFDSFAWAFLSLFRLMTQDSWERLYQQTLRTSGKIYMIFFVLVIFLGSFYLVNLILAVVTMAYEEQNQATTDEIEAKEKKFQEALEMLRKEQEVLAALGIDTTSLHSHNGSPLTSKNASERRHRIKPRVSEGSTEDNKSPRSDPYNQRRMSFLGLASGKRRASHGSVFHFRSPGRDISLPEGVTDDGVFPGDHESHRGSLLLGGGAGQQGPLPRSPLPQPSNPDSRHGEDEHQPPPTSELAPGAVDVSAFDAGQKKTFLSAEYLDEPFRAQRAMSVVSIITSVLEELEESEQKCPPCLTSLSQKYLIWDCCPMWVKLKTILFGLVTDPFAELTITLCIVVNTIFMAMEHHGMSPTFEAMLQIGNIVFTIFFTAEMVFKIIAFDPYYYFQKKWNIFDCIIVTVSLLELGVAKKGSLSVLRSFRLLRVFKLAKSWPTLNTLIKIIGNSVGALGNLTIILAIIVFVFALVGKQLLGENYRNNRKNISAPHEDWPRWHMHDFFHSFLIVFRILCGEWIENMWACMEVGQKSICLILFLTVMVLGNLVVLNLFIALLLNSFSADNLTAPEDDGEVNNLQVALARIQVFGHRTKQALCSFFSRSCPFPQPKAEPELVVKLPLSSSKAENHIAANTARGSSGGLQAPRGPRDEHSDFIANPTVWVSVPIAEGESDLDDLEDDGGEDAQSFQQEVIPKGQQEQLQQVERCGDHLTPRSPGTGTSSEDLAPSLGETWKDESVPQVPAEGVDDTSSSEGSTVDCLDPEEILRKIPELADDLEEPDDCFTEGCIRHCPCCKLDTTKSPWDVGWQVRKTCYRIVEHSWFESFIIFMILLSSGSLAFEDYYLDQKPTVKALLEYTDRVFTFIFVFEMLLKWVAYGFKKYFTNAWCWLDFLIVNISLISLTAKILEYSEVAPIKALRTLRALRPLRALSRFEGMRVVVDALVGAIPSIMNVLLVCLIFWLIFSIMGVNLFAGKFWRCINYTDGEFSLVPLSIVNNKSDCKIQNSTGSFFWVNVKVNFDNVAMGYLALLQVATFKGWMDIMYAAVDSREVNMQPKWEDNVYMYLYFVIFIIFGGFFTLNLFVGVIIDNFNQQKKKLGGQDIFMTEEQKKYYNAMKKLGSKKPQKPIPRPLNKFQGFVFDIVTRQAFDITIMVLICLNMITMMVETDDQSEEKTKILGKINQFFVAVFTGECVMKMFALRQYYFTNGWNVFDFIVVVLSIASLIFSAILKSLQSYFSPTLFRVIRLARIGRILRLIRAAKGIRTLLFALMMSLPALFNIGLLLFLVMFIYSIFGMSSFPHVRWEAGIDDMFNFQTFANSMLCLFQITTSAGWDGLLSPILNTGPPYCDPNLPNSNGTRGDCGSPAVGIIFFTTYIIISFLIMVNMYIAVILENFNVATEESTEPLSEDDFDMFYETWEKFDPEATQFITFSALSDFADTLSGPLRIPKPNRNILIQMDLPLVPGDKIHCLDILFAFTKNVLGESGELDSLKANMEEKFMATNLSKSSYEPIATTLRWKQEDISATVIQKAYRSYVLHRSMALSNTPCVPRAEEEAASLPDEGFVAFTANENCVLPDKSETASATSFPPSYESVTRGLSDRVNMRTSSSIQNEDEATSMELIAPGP

B1: F010302375 (bispecific antibody)
chain: DVQLVESGGGLVQPGGSLRLSCAASGSIFNINSMAWYRRAPGKQRELVASSTNGGSTNYADSVKGRFTISRDNAKRVYLQMNSLTPEDTAVYYCRALLQPSIYDISRTYWGQGTLVTVSSGGGGSGGGGSGGGGSGGGGSGGGGSGGGGSGGGGSGGGGSGGGGSGGGGSEVQLVESGGGLVQAGGSLRLSCAASGRAFSTLAMGWFRQAPGKEREFVAAISRNGNNSATGDSLKGRFTISRDSTKSTVFLQMNTLKPEDTAVYYCAAISTPSASHPYVRKESYRYWGQGTQVTVSSGAADYKDHDGDYKDHDIDYKDDDDKGAAHHHHHH
notes: also called F0103275B05(E1D, N93R)-50GS-F0103478E09(L108Q)-FLAG3-HIS6
For B1, the IC50 [1] was 12 nM, the “Qpatch IC50” value [2] was 2.8 nM and the “Qpatch IC50” value [3] was 2.6 nM. The “Qpatch IC50” value [4] was 123 nM, the “Qpatch IC50” value [5] was 93 nM and the IC50 [6] was 10 nM. The IC50 [7] was 6.5 nM, the IC50 [8] was 4.3 nM and the IC50 [9] was 110 nM.

B2: F010302378 (bispecific antibody)
chain: DVQLVESGGGLVQPGGSLRLSCAASGSIFNINSMAWYRRAPGKQRELVASSTNGGSTNYADSVKGRFTISRDNAKRVYLQMNSLTPEDTAVYYCRALLQPSIYDISRTYWGQGTLVTVSSGGGGSGGGGSGGGGSGGGGSGGGGSGGGGSGGGGSGGGGSGGGGSGGGGSEVQLVESGGGLVQAGSSLSLSCAASGRALSTYAMGWFRQAPGKEREFVARISRSGITTYYTDSVKGRFTISRDRAKDTVYLQMNSLKPEDTAIYLCAADASTNPAGYYLRNRYDYWGQGTLVTVSSGAADYKDHDGDYKDHDIDYKDDDDKGAAHHHHHH
notes: also called F0103275B05(E1D, N93R)-50GS-F0103495F09-FLAG3-HIS6
With B2 the IC50 [1] was 10 nM, the “Qpatch IC50” value [2] was 2.6 nM and the “Qpatch IC50” value [3] was 2.3 nM. For the same binder, the “Qpatch IC50” value [4] was 115 nM, the “Qpatch IC50” value [5] was 103 nM and the IC50 [6] was 12 nM. It also gave an IC50 [7] of 6.6 nM, an IC50 [8] of 5.2 nM and an IC50 [9] of 80 nM.

B3: F0103387G05 (parental)-FLAG-HIS6 (VHH)
VHH: EVQLVESGGGLVQAGGSLRLSCDASGRILRIGYMRWHRQGAGKQREFVARITDDSATDYADSVKGRFTISRDNAKNTVYLQMNNLNPEDTAVYYCEALVTASVRGGSIHSGTYWGRGTLVTVSS
B3 showed an EC50 [10] of 4.7 nM, an EC50 [11] of 1.7 nM and an EC50 [12] of 2.7 nM. B3: no binding [13]; no binding [14]; no binding [15]. B3: no binding [16]; no binding [17]; no binding [18]. For the same binder, the binding result [19] was “no binding”, the binding result [20] was “no binding” and the EC50 [21] was 1.2 nM. For the same binder, the binding result [22] was “no binding”, the EC50 [23] was 3.1 nM and the EC50 [24] was 3.6 nM.

B4: F0103275B05 (parental)-FLAG-HIS6 (VHH)
VHH: EVQLVESGGGLVQPGGSLRLSCAASGSIFNINSMAWYRRAPGKQRELVASSTNGGSTNYADSVKGRFTISRDNAKRVYLQMNSLTPEDTAVYYCNALLQPSIYDISRTYWGQGTLVTVSS
notes: also called F01033275B05
In the case of B4, the EC50 [25] is reported as 10 nM, the EC50 [26] is reported as 48 nM and the EC50 [27] is reported as 27 nM. B4: no binding [14]; no binding [15]; no binding [16]. B4: no binding [17]; no binding [18]; no binding [19]. The binding result [20] was “no binding”, the EC50 [21] was 28 nM and the binding result [22] was “no binding”. It also gave an EC50 [23] of 37 nM and an EC50 [24] of 39 nM.

B5: F010300659 (VHH)
VHH: B4 VHH with S27P, I28V, S50Y, N53P, G55W, S56D, T57W, N95R, A96W
notes: also called F0103275B05(S27P, I28V, S50Y, N53P, G55W, S56D, T57W, N93R, A94W)-FLAG3 + HIS6
B5 was tested, and the “Qpatch IC50” value [28] was 199 nM, the “Qpatch IC50” value [29] was 85 nM and the “Qpatch IC50 [M], HEK cells” value [30] was 1.8e-07 M. The “Qpatch IC50 [M], HEK cells” value [31] was 8.5e-08 M, the EC50 [32] was 11 nM and the EC50 [33] was 5.4 nM.

B6: 66ASP (Fc fusion)
chain: B4 VHH with S27P, I28V, S50Y, N53P, G55W, S56D, T57W, N95R, A96W
notes: also called F010300659-5GS-Fc; not shown: 5GS linker; Fc moiety
With B6 the “Qpatch IC50 [M], HEK cells” value [30] was 5.2e-08 M, the “Qpatch IC50 [M], HEK cells” value [31] was 9.2e-08 M and the EC50 [32] was 42 nM. It also gave an EC50 [33] of 61 nM.

B7: F0103454D07 (parental)-FLAG-HIS6 (VHH)
VHH: EVQLVESGGGLVQPGGSLRLSCVASGGIININYIAWYRQTPGKQRDLVARISSDDTIKYGDSVKGRFAMSRDKVKNMVHLQMNSLTTEDTGVYVCSALITPWTGDTRTYWGRGTLVTVSS
B7 was tested, and the “Qpatch IC50” value [34] was 38 nM.

B8: F0103362B08 (parental)-FLAG-HIS6 (VHH)
VHH: EVQLVESGGGLVQAGGSLRLSCAASVRPFSTSAMGWFRQAPEKEREAVAGILWNGIVTYYADSVKGRFTISRDNAKNEVYLQMNKLKPEDTAVYYCALDRDYGGRSFSAYEYEYWGQGTLVTVSS
For B8, the “Qpatch IC50” value [34] was 1 nM.
